Results: PMC3449402

Molecular target: MAb<EGFR> (human)
Test: SPR

Kd: 120 nM
Substance: soluble construct of the FcγRIIIa ectodomain (from UniProt P08637 17-208) (receptor)
